# Assay results published in patent publication US20180155451A1 (published 2018).
# B1: GpH7-B3 variant K326_19Q/GpL16-k0 (antibody, human IgG1, kappa)
# heavy: not shown
# light: DIVMTQSPLSLPVTPGEPASISCQASESLVHSNRNTYLHWYLQKPGQSPQLLIYKVSNRFSGVPDRFSGSGSGTDFTLKISRVEAEDVGVYYCSQNTHVPPTFGQGTKVEIERTVAAPSVFIFPPSDEQLKSGTASVVCLLNNFYPREAKVQWKVDNALQSGNSQESVTEQDSKDSTYSLSSTLTLSKADYEKHKVYACEVTHQGLSSPVTKSFNRGEC
# notes: homodimerized IgG1, mutation in both H chains; also called Ho Ab
# B2: GpH7-A5/GpH7-B3 variant K334_01G/GpL16-k0 (antibody, human IgG1, kappa)
# heavy 1: not shown
# heavy 2: not shown
# light: B1 light
# notes: heterodimerized IgG1, mutation in one H chain only; also called He Ab
# B3: GpH7-B3 variant T335_10E/GpL16-k0 (antibody, human IgG1, kappa)
# heavy: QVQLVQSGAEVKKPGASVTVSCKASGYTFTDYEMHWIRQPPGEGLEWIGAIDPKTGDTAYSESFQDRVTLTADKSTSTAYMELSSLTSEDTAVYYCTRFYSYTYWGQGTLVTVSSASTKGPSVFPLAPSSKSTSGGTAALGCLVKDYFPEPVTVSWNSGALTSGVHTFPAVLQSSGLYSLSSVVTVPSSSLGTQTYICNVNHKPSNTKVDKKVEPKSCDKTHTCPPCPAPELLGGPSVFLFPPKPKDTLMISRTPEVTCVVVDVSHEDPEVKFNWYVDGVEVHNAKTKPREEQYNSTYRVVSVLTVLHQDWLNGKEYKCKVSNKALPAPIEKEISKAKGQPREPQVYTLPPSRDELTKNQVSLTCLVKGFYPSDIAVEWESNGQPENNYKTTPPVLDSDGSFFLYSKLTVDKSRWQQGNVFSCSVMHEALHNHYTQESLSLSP
# light: B1 light
# notes: as for B1
# B4: GpH7-A5/GpH7-B3 variant I332_10E/GpL16-k0 (antibody, human IgG1, kappa)
# heavy 1: not shown
# heavy 2: not shown
# light: B1 light
# notes: as for B2
# B5: GpH7-B3 variant Q295_02A/GpL16-k0 (antibody, human IgG1, kappa)
# heavy: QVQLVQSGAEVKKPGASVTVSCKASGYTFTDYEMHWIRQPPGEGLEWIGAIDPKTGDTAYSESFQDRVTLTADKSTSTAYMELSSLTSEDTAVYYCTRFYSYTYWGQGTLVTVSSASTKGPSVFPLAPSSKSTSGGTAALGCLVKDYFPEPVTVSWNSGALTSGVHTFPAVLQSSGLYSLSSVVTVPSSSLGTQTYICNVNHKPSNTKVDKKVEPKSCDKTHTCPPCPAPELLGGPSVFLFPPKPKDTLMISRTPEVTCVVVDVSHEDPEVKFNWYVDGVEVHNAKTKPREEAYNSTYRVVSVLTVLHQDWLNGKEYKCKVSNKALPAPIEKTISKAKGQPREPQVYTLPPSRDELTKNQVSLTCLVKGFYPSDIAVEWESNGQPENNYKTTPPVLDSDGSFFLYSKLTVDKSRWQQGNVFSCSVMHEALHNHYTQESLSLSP
# light: B1 light
# notes: as for B1
# B6: GpH7-A5/GpH7-B3 variant A330_08L/GpL16-k0 (antibody, human IgG1, kappa)
# heavy 1: not shown
# heavy 2: not shown
# light: B1 light
# notes: as for B2
# B7: GpH7-A5/GpH7-B3 variant I336_18N/GpL16-k0 (antibody, human IgG1, kappa)
# heavy 1: not shown
# heavy 2: not shown
# light: B1 light
# notes: as for B2
# B8: GpH7-A5/GpH7-B3 variant K326_04F/GpL16-k0 (antibody, human IgG1, kappa)
# heavy 1: not shown
# heavy 2: not shown
# light: B1 light
# notes: as for B2
# B9: GpH7-B3 variant S267_02A/GpL16-k0 (antibody, human IgG1, kappa)
# heavy: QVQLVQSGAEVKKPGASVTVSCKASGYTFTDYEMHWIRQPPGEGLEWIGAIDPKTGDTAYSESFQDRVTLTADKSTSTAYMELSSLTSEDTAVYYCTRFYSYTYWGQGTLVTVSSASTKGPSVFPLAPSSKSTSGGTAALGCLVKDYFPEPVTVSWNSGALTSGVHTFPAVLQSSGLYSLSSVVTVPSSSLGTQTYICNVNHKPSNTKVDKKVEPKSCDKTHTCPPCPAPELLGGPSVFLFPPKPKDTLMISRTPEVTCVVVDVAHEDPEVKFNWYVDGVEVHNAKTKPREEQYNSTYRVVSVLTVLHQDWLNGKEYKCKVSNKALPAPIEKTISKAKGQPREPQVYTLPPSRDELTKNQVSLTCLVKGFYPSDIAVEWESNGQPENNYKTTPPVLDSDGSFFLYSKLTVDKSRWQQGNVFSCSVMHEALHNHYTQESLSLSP
# light: B1 light
# notes: as for B1
# B10: GpH7-A5/GpH7-B3 variant H268_10E/GpL16-k0 (antibody, human IgG1, kappa)
# heavy 1: not shown
# heavy 2: not shown
# light: B1 light
# notes: as for B2
# B11: GpH7-A5/GpH7-B3 variant A330_20W/GpL16-k0 (antibody, human IgG1, kappa)
# heavy 1: not shown
# heavy 2: not shown
# light: B1 light
# notes: as for B2
# B12: GpH7-A5/GpH7-B3 variant I332_02A/GpL16-k0 (antibody, human IgG1, kappa)
# heavy 1: not shown
# heavy 2: not shown
# light: B1 light
# notes: as for B2
# B13: GpH7-A5/GpH7-B3 variant I332_14T/GpL16-k0 (antibody, human IgG1, kappa)
# heavy 1: not shown
# heavy 2: not shown
# light: B1 light
# notes: as for B2
# B14: GpH7-A5/GpH7-B3 variant H268_09D/GpL16-k0 (antibody, human IgG1, kappa)
# heavy 1: not shown
# heavy 2: not shown
# light: B1 light
# notes: as for B2
# B15: GpH7-B3 variant S267_09D/GpL16-k0 (antibody, human IgG1, kappa)
# heavy: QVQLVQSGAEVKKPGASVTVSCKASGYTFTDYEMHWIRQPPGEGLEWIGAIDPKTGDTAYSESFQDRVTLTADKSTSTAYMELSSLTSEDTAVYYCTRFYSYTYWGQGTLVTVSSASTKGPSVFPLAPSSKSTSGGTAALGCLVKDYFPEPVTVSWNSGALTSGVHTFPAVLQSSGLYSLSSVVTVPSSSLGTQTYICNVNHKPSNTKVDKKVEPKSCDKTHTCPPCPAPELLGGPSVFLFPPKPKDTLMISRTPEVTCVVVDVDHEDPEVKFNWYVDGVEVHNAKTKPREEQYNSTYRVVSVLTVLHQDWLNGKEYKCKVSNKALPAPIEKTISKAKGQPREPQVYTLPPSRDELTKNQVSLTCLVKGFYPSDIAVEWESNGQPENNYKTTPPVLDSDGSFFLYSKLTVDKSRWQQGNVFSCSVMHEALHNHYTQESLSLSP
# light: B1 light
# notes: as for B1
# B16: GpH7-B3 variant K334_04F/GpL16-k0 (antibody, human IgG1, kappa)
# heavy: not shown
# light: B1 light
# notes: as for B1
# B17: GpH7-B3 variant K334_07I/GpL16-k0 (antibody, human IgG1, kappa)
# heavy: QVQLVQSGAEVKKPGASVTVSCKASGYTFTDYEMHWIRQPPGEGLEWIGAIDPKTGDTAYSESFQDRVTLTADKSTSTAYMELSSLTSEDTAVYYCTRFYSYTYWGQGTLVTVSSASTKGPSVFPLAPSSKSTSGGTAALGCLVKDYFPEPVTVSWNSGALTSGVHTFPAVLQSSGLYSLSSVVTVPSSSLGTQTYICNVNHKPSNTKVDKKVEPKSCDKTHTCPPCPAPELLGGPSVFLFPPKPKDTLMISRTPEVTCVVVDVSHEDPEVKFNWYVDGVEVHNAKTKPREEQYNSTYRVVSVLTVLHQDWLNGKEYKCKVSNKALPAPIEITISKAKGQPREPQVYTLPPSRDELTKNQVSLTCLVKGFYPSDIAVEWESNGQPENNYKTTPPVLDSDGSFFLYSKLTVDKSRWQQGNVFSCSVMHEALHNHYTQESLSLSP
# light: B1 light
# notes: as for B1
# B18: GpH7-B3 variant K334_13S/GpL16-k0 (antibody, human IgG1, kappa)
# heavy: not shown
# light: B1 light
# notes: as for B1
# B19: GpH7-A5/GpH7-B3 variant I336_14T/GpL16-k0 (antibody, human IgG1, kappa)
# heavy 1: not shown
# heavy 2: not shown
# light: B1 light
# notes: as for B2
# B20: GpH7-B3 variant K334_18N/GpL16-k0 (antibody, human IgG1, kappa)
# heavy: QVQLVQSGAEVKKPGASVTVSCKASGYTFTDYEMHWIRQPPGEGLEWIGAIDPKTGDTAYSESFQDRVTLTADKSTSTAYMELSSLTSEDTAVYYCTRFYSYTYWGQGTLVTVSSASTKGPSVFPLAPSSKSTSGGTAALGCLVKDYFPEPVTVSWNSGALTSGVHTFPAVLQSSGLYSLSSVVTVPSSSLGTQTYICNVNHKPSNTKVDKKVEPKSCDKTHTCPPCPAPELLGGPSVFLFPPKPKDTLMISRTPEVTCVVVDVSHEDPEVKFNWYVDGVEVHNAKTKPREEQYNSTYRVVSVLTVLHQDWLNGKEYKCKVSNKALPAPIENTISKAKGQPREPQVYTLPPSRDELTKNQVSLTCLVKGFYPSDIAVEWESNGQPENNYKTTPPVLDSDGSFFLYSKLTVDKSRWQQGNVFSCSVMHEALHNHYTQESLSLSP
# light: B1 light
# notes: as for B1
# B21: GpH7-A5/GpH7-B3 variant I332_09D/GpL16-k0 (antibody, human IgG1, kappa)
# heavy 1: not shown
# heavy 2: not shown
# light: B1 light
# notes: as for B2
# B22: GpH7-A5/GpH7-B3 variant A330_04F/GpL16-k0 (antibody, human IgG1, kappa)
# heavy 1: not shown
# heavy 2: not shown
# light: B1 light
# notes: as for B2
# B23: GpH7-B3 variant K334_03V/GpL16-k0 (antibody, human IgG1, kappa)
# heavy: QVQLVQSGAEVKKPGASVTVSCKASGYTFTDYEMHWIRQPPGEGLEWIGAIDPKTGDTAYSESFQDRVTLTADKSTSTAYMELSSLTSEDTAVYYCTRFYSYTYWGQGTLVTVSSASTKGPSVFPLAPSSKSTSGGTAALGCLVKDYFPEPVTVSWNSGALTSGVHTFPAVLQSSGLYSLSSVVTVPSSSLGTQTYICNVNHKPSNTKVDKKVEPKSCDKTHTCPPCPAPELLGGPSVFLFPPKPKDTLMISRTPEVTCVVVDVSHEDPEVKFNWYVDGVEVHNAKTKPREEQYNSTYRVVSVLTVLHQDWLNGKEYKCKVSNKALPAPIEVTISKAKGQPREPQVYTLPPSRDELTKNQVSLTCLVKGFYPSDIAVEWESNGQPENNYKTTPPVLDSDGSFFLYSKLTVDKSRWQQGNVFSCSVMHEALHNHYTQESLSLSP
# light: B1 light
# notes: as for B1
# B24: GpH7-B3 variant T335_07I/GpL16-k0 (antibody, human IgG1, kappa)
# heavy: not shown
# light: B1 light
# notes: as for B1
# B25: GpH7-A5/GpH7-B3 variant K326_06M/GpL16-k0 (antibody, human IgG1, kappa)
# heavy 1: not shown
# heavy 2: not shown
# light: B1 light
# notes: as for B2
# B26: GpH7-A5/GpH7-B3 variant K326_03V/GpL16-k0 (antibody, human IgG1, kappa)
# heavy 1: not shown
# heavy 2: not shown
# light: B1 light
# notes: as for B2
# B27: GpH7-B3 variant K334_16H/GpL16-k0 (antibody, human IgG1, kappa)
# heavy: not shown
# light: B1 light
# notes: as for B1
# B28: GpH7-B3 variant K334_19Q/GpL16-k0 (antibody, human IgG1, kappa)
# heavy: not shown
# light: B1 light
# notes: as for B1
# B29: GpH7-B3 variant K334_10E/GpL16-k0 (antibody, human IgG1, kappa)
# heavy: not shown
# light: B1 light
# notes: as for B1
# B30: GpH7-B3 variant K334_08L/GpL16-k0 (antibody, human IgG1, kappa)
# heavy: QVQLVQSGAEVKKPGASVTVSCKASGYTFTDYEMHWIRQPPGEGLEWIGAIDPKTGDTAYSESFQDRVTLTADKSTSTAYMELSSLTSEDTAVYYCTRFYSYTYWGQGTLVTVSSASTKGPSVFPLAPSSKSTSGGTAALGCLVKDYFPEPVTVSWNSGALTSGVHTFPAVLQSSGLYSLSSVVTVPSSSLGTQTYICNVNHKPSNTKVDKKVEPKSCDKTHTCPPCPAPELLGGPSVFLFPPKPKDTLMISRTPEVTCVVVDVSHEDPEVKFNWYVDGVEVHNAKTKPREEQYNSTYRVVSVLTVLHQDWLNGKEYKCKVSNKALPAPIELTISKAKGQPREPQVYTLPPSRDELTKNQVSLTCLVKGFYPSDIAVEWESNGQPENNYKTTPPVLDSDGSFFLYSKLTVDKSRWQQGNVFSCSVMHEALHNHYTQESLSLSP
# light: B1 light
# notes: as for B1
# B31: GpH7-A5/GpH7-B3 variant I336_03V/GpL16-k0 (antibody, human IgG1, kappa)
# heavy 1: not shown
# heavy 2: not shown
# light: B1 light
# notes: as for B2
# B32: GpH7-B3 variant K334_14T/GpL16-k0 (antibody, human IgG1, kappa)
# heavy: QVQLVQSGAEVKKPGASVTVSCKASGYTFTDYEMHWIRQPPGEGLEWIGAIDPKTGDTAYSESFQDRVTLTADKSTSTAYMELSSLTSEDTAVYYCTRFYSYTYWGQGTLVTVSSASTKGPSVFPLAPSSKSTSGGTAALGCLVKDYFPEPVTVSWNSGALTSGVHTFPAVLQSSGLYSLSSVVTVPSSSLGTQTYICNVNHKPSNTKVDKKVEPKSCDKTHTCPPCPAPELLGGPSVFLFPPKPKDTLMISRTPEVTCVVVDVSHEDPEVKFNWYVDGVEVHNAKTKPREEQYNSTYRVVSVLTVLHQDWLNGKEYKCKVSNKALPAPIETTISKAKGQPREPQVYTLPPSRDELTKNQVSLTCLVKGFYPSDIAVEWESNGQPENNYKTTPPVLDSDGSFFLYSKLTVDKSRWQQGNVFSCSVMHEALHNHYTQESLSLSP
# light: B1 light
# notes: as for B1
# B33: GpH7-B3 variant K334_02A/GpL16-k0 (antibody, human IgG1, kappa)
# heavy: not shown
# light: B1 light
# notes: as for B1
# B34: GpH7-B3 variant K334_05P/GpL16-k0 (antibody, human IgG1, kappa)
# heavy: not shown
# light: B1 light
# notes: as for B1
# B35: GpH7-A5/GpH7-B3 variant I336_10E/GpL16-k0 (antibody, human IgG1, kappa)
# heavy 1: not shown
# heavy 2: not shown
# light: B1 light
# notes: as for B2
# B36: GpH7-A5/GpH7-B3 variant I336_02A/GpL16-k0 (antibody, human IgG1, kappa)
# heavy 1: not shown
# heavy 2: not shown
# light: B1 light
# notes: as for B2
# B37: GpH7-B3 variant K334_15Y/GpL16-k0 (antibody, human IgG1, kappa)
# heavy: not shown
# light: B1 light
# notes: as for B1
# B38: GpH7-A5/GpH7-B3 variant I332_13S/GpL16-k0 (antibody, human IgG1, kappa)
# heavy 1: not shown
# heavy 2: not shown
# light: B1 light
# notes: as for B2
# B39: GpH7-A5/GpH7-B3 variant I336_13S/GpL16-k0 (antibody, human IgG1, kappa)
# heavy 1: not shown
# heavy 2: not shown
# light: B1 light
# notes: as for B2
# B40: GpH7-A5/GpH7-B3 variant I332_19Q/GpL16-k0 (antibody, human IgG1, kappa)
# heavy 1: not shown
# heavy 2: not shown
# light: B1 light
# notes: as for B2
# B41: GpH7-A5/GpH7-B3 variant I332_15Y/GpL16-k0 (antibody, human IgG1, kappa)
# heavy 1: not shown
# heavy 2: not shown
# light: B1 light
# notes: as for B2
# B42: GpH7-B3 variant S337_18N/GpL16-k0 (antibody, human IgG1, kappa)
# heavy: not shown
# light: B1 light
# notes: as for B1
# B43: GpH7-B3 variant S337_10E/GpL16-k0 (antibody, human IgG1, kappa)
# heavy: not shown
# light: B1 light
# notes: as for B1
# B44: GpH7-B3 variant Q295_10E/GpL16-k0 (antibody, human IgG1, kappa)
# heavy: not shown
# light: B1 light
# notes: as for B1
# B45: GpH7-B3 variant S337_09D/GpL16-k0 (antibody, human IgG1, kappa)
# heavy: not shown
# light: B1 light
# notes: as for B1
# B46: GpH7-B3 variant Q295_14T/GpL16-k0 (antibody, human IgG1, kappa)
# heavy: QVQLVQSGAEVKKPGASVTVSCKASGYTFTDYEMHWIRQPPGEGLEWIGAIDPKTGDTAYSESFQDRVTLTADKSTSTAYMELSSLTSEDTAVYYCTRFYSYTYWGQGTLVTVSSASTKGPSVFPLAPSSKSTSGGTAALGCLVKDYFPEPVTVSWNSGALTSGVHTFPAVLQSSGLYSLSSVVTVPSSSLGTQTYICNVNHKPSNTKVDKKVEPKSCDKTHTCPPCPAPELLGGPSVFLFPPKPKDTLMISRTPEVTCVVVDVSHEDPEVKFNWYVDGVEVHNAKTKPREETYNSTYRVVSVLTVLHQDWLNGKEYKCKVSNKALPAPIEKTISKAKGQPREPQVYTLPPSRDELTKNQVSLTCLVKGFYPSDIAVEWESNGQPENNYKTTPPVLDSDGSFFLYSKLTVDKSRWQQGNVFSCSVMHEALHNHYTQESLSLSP
# light: B1 light
# notes: as for B1
# B47: GpH7-B3 variant K334_09D/GpL16-k0 (antibody, human IgG1, kappa)
# heavy: not shown
# light: B1 light
# notes: as for B1
# B48: GpH7-A5/GpH7-B3 variant E333_16H/GpL16-k0 (antibody, human IgG1, kappa)
# heavy 1: not shown
# heavy 2: not shown
# light: B1 light
# notes: as for B2
# B49: GpH7-A5/GpH7-B3 variant H268_13S/GpL16-k0 (antibody, human IgG1, kappa)
# heavy 1: not shown
# heavy 2: not shown
# light: B1 light
# notes: as for B2
# B50: GpH7-B3 variant S298_14T/GpL16-k0 (antibody, human IgG1, kappa)
# heavy: not shown
# light: B1 light
# notes: as for B1
# B51: GpH7-A5/GpH7-B3 variant K326_07I/GpL16-k0 (antibody, human IgG1, kappa)
# heavy 1: not shown
# heavy 2: not shown
# light: B1 light
# notes: as for B2
# B52: GpH7-A5/GpH7-B3 variant I336_09D/GpL16-k0 (antibody, human IgG1, kappa)
# heavy 1: not shown
# heavy 2: not shown
# light: B1 light
# notes: as for B2
# B53: GpH7-A5/GpH7-B3 variant I332_01G/GpL16-k0 (antibody, human IgG1, kappa)
# heavy 1: not shown
# heavy 2: not shown
# light: B1 light
# notes: as for B2
# B54: GpH7-A5/GpH7-B3 variant I336_06M/GpL16-k0 (antibody, human IgG1, kappa)
# heavy 1: not shown
# heavy 2: not shown
# light: B1 light
# notes: as for B2
# B55: GpH7-B3 variant S239_09D/GpL16-k0 (antibody, human IgG1, kappa)
# heavy: not shown
# light: B1 light
# notes: as for B1
# Columns and labels:
# [1] = molecular target: T1, FcγRIIIa extracellular domain with C-terminal His tag (human, UniProt P08637 17-208); experiment: SPR, relative to GpH7-B3/GpL16-k0
# T1 construct: extracellular domain; also called FcgRIIIa; 3a
# T1 sequence (P08637 17-208): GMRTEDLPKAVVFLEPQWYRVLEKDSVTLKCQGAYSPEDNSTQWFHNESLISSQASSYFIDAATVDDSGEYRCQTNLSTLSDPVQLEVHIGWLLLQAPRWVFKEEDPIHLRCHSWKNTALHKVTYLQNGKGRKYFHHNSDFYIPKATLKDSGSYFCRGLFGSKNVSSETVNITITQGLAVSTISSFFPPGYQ
# [2] = molecular target: T1, FcγRIIIa extracellular domain with …; experiment: SPR, relative to GpH7-A5/GpH7-B3/GpL16-k0
binder,measurement,setting,value
B1,Ho/Con_3a,[1],118 % of control (=100)
B2,He/Con_3a,[2],121 % of control (=100)
B3,Ho/Con_3a,[1],102 % of control (=100)
B4,He/Con_3a,[2],233 % of control (=100)
B5,Ho/Con_3a,[1],108 % of control (=100)
B6,He/Con_3a,[2],124 % of control (=100)
B7,He/Con_3a,[2],104 % of control (=100)
B8,He/Con_3a,[2],103 % of control (=100)
B9,Ho/Con_3a,[1],145 % of control (=100)
B10,He/Con_3a,[2],186 % of control (=100)
B11,He/Con_3a,[2],104 % of control (=100)
B12,He/Con_3a,[2],112 % of control (=100)
B13,He/Con_3a,[2],120 % of control (=100)
B14,He/Con_3a,[2],197 % of control (=100)
B15,Ho/Con_3a,[1],160 % of control (=100)
B16,Ho/Con_3a,[1],168 % of control (=100)
B17,Ho/Con_3a,[1],180 % of control (=100)
B18,Ho/Con_3a,[1],153 % of control (=100)
B19,He/Con_3a,[2],108 % of control (=100)
B20,Ho/Con_3a,[1],156 % of control (=100)
B21,He/Con_3a,[2],207 % of control (=100)
B22,He/Con_3a,[2],147 % of control (=100)
B23,Ho/Con_3a,[1],170 % of control (=100)
B24,Ho/Con_3a,[1],107 % of control (=100)
B25,He/Con_3a,[2],115 % of control (=100)
B26,He/Con_3a,[2],122 % of control (=100)
B27,Ho/Con_3a,[1],153 % of control (=100)
B28,Ho/Con_3a,[1],150 % of control (=100)
B29,Ho/Con_3a,[1],206 % of control (=100)
B30,Ho/Con_3a,[1],178 % of control (=100)
B31,He/Con_3a,[2],112 % of control (=100)
B32,Ho/Con_3a,[1],163 % of control (=100)
B33,Ho/Con_3a,[1],154 % of control (=100)
B34,Ho/Con_3a,[1],165 % of control (=100)
B35,He/Con_3a,[2],119 % of control (=100)
B36,He/Con_3a,[2],111 % of control (=100)
B37,Ho/Con_3a,[1],181 % of control (=100)
B38,He/Con_3a,[2],104 % of control (=100)
B39,He/Con_3a,[2],102 % of control (=100)
B40,He/Con_3a,[2],110 % of control (=100)
B41,He/Con_3a,[2],101 % of control (=100)
B42,Ho/Con_3a,[1],102 % of control (=100)
B43,Ho/Con_3a,[1],100 % of control (=100)
B44,Ho/Con_3a,[1],111 % of control (=100)
B45,Ho/Con_3a,[1],106 % of control (=100)
B46,Ho/Con_3a,[1],108 % of control (=100)
B47,Ho/Con_3a,[1],150 % of control (=100)
B48,He/Con_3a,[2],103 % of control (=100)
B49,He/Con_3a,[2],122 % of control (=100)
B50,Ho/Con_3a,[1],107 % of control (=100)
B51,He/Con_3a,[2],139 % of control (=100)
B52,He/Con_3a,[2],106 % of control (=100)
B53,He/Con_3a,[2],111 % of control (=100)
B54,He/Con_3a,[2],109 % of control (=100)
B55,Ho/Con_3a,[1],192 % of control (=100)
